Biological target: STARD1^S195E mutant (human StAR domain, residues 66-285) (human) (UniProt P49675)
Test: SEC

- fraction of dimers: < 3%
Substance: STARD1^S195E mutant (human StAR domain, residues 66-285) (from UniProt P49675 66-285) (domain or fragment)

Reference: article doi:10.1101/116368
